Measured values from article PMC3504387 (Chemmedchem, 2012).
Where no end group is shown, it is not given here. The star is where a group is joined. Biotin = O=C1N[C@H]2[C@H](CS[C@H]2CCCCC(=O)*)N1; Ahx = NCCCCCC(=O)O

T1: GST–PPARα fusion protein (purified ligand binding domain of PPARα)
T1 sequence (Q07869 whole entry, species assumed, looked up): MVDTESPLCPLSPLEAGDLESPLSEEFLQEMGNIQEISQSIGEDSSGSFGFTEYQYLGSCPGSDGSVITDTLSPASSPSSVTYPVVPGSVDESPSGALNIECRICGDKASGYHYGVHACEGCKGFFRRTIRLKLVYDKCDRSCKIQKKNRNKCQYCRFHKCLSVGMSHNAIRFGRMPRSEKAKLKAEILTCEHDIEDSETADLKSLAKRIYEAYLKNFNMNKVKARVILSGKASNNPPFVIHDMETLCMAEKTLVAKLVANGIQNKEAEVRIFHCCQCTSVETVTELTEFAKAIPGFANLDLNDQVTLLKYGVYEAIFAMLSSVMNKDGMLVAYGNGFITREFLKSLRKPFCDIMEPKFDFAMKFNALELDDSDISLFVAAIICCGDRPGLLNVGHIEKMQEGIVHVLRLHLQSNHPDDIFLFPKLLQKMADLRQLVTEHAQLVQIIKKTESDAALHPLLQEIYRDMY

T2: GST–PPARγ fusion protein (purified ligand binding domain of PPARγ)
T2 chain: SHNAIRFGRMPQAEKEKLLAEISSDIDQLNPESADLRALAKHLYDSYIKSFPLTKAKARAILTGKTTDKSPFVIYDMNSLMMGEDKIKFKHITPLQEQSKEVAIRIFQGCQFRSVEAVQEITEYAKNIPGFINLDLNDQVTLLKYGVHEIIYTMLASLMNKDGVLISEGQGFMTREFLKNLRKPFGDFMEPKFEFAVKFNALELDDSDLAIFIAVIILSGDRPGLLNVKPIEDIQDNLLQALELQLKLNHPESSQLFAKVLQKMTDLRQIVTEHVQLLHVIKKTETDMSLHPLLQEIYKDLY


Assays:
[1] = molecular target: T1, GST–PPARα fusion protein (purified ligand binding domain of PPARα); experiment: FRET or BRET; homogeneous TR-FRET as a1, 12-concentration dose–response of fenofibric acid; the EC50 is of the compound; delta ratio in % of the reference compound RO4899100 at 10 μM
[2] = molecular target: T1, GST–PPARα fusion protein (purified ligand binding domain of PPARα); experiment: FRET or BRET; homogeneous TR-FRET as a1, 12-concentration dose–response of edaglitazone; the EC50 is of the compound; delta ratio in % of the reference compound at 10 μM (RO4899100 for PPARα, edaglitazone for PPARγ)
[3] = molecular target: T1, GST–PPARα fusion protein (purified ligand binding domain of PPARα); experiment: FRET or BRET; homogeneous TR-FRET as a1, 12-concentration dose–response of RO4899100; the EC50 is of the compound; delta ratio in % of the reference compound at 10 μM (RO4899100 for PPARα, edaglitazone for PPARγ)
[4] = molecular target: T1, GST–PPARα fusion protein (purified ligand binding domain of PPARα); experiment: FRET or BRET; homogeneous TR-FRET as a1, 12-concentration dose–response of aleglitazar; the EC50 is of the compound; delta ratio in % of the reference compound at 10 μM (RO4899100 for PPARα, edaglitazone for PPARγ)
[5] = molecular target: T1, GST–PPARα fusion protein (purified ligand binding domain of PPARα); experiment: FRET or BRET; homogeneous TR-FRET as a1, 12-concentration dose–response of muraglitazar; the EC50 is of the compound; delta ratio in % of the reference compound at 10 μM (RO4899100 for PPARα, edaglitazone for PPARγ)
[6] = molecular target: T1, GST–PPARα fusion protein (purified ligand binding domain of PPARα); experiment: FRET or BRET; homogeneous TR-FRET as a1, 12-concentration dose–response of tesaglitazar; the EC50 is of the compound; delta ratio in % of the reference compound at 10 μM (RO4899100 for PPARα, edaglitazone for PPARγ)
[7] = molecular target: T2, GST–PPARγ fusion protein (purified …); experiment: FRET or BRET; homogeneous TR-FRET as a1, 12-concentration dose–response of muraglitazar; the EC50 is of the compound; delta ratio in % of the reference compound at 10 μM (RO4899100 for PPARα, edaglitazone for PPARγ); details: both partners purified
[8] = molecular target: T2, GST–PPARγ fusion protein (purified …); experiment: FRET or BRET; homogeneous TR-FRET as a1, 12-concentration dose–response of aleglitazar; the EC50 is of the compound; delta ratio in % of the reference compound at 10 μM (RO4899100 for PPARα, edaglitazone for PPARγ); details: both partners purified
[9] = molecular target: T2, GST–PPARγ fusion protein (purified …); experiment: FRET or BRET; homogeneous TR-FRET as a1, 12-concentration dose–response of farglitazar; the EC50 is of the compound; delta ratio in % of the reference compound edaglitazone at 10 μM; details: both partners purified
[10] = molecular target: T2, GST–PPARγ fusion protein (purified …); experiment: FRET or BRET; homogeneous TR-FRET as a1, 12-concentration dose–response of tesaglitazar; the EC50 is of the compound; delta ratio in % of the reference compound at 10 μM (RO4899100 for PPARα, edaglitazone for PPARγ); details: both partners purified
[11] = molecular target: T2, GST–PPARγ fusion protein (purified …); experiment: FRET or BRET; homogeneous TR-FRET as a1, 12-concentration dose–response of edaglitazone; the EC50 is of the compound; delta ratio in % of the reference compound at 10 μM (RO4899100 for PPARα, edaglitazone for PPARγ); details: both partners purified
[12] = molecular target: T2, GST–PPARγ fusion protein (purified …); experiment: FRET or BRET; homogeneous TR-FRET as a1, 12-concentration dose–response of rosiglitazone; the EC50 is of the compound; delta ratio in % of the reference compound at 10 μM (RO4899100 for PPARα, edaglitazone for PPARγ); details: both partners purified
[13] = molecular target: T2, GST–PPARγ fusion protein (purified …); experiment: FRET or BRET; homogeneous TR-FRET as a1, 12-concentration dose–response of pioglitazone; the EC50 is of the compound; delta ratio in % of the reference compound at 10 μM (RO4899100 for PPARα, edaglitazone for PPARγ); details: both partners purified
[14] = molecular target: T1, GST–PPARα fusion protein (purified ligand binding domain of PPARα); experiment: FRET or BRET; homogeneous TR-FRET as a1, 12-concentration dose–response of rosiglitazone; the EC50 is of the compound; delta ratio in % of the reference compound at 10 μM (RO4899100 for PPARα, edaglitazone for PPARγ)

| Binder | EC50 of fenofibric acid for recruitment [1] | delta ratio with fenofibric acid [1] | EC50 of edaglitazone for recruitment [2] | delta ratio with edaglitazone [2] | EC50 of RO4899100 for recruitment [3] | EC50 of aleglitazar for recruitment [4] | delta ratio with aleglitazar [4] | EC50 of muraglitazar for recruitment [5] | delta ratio with muraglitazar [5] | EC50 of tesaglitazar for recruitment [6] | delta ratio with tesaglitazar [6] | EC50 of muraglitazar for recruitment [7] | EC50 of aleglitazar for recruitment [8] | EC50 of farglitazar for recruitment [9] | EC50 of tesaglitazar for recruitment [10] | EC50 of edaglitazone for recruitment [11] | EC50 of rosiglitazone for recruitment [12] | EC50 of pioglitazone for recruitment [13] | other results |
| --- | --- | --- | --- | --- | --- | --- | --- | --- | --- | --- | --- | --- | --- | --- | --- | --- | --- | --- | --- |
| {Biotin-Ahx}-PKKENNALLRYLLDRDDPSDV (source: synthetic peptide (Jerini or Biosynthan, Berlin)) [RAC3_M3 cofactor peptide (receptor-associated co-activator 3, motif 3)] | – | – | 1920 nM | 24% | 25.9 nM | 4.4 nM | 62% | 330 nM | 35% | 941 nM | 60% | 39.5 nM | 9.5 nM | – | 233 nM | 33.1 nM | 271 nM | 1860 nM | – |
| {Biotin-Ahx}-SNMHGSLLQEKHRILHKLLQNGNSP (source: synthetic peptide (Jerini or Biosynthan, Berlin)) [RAC3_M2 cofactor peptide (receptor-associated co-activator 3, motif 2)] | – | – | – | – | – | – | – | – | – | – | – | 16.5 nM | 7.4 nM | 6.5 nM | 110 nM | 22.7 nM | 125 nM | 1070 nM | – |
| {Biotin-Ahx}-AVQEHASTNMGLEAIIRKALMGKYD (silencing mediator of retinoid and thyroid hormone receptors (SMRT), ID2, residues 2331-2355; also called SMRT2; source: synthetic peptide (Jerini or Biosynthan, Berlin)) | – | – | – | -20% | – | – | -51% | – | -28% | – | -26% | – | – | – | – | – | – | – | EC50 of edaglitazone for displacement [2]: 790 nM; EC50 of muraglitazar for displacement [7]: 60.3 nM; EC50 of aleglitazar for displacement [8]: 14.4 nM; EC50 of pioglitazone for displacement [13]: 3.7 µM; EC50 of RO4899100 for displacement [3]: 108 nM; EC50 of farglitazar for displacement [9]: 11.6 nM; EC50 of aleglitazar for displacement [4]: 14.1 nM; EC50 of tesaglitazar for displacement [10]: 346 nM; EC50 of edaglitazone for displacement [11]: 41.6 nM; EC50 of muraglitazar for displacement [5]: 563 nM; EC50 of tesaglitazar for displacement [6]: 1780 nM; EC50 of rosiglitazone for displacement [12]: 333 nM |
| {Biotin-Ahx}-LDASKKKESKDHQLLRYLLDKDEKD (source: synthetic peptide (Jerini or Biosynthan, Berlin)) [SRC1_M3 cofactor peptide (steroid receptor co-activator 1, motif 3)] | 3.45 µM | 47% | – | – | 4.9 nM | 2.4 nM | 53% | 8.4 nM | 23% | 111 nM | 52% | 37.4 nM | 11.3 nM | 12.1 nM | 196 nM | 38.1 nM | 241 nM | 2120 nM | EC50 of rosiglitazone for recruitment [14]: 3070 nM; delta ratio with rosiglitazone [14]: 21% |
| {Biotin-Ahx}-DSKYSQTSHKLVQLLTTTAEQQLRH (source: synthetic peptide (Jerini or Biosynthan, Berlin)) [SRC1_M1 cofactor peptide (steroid receptor co-activator 1, motif 1)] | 4.36 µM | 39% | 867 nM | 41% | 16.1 nM | 2.9 nM | 94% | 186 nM | 74% | 427 nM | – | 35.6 nM | 11 nM | 8.6 nM | 226 nM | 38.1 nM | 240 nM | 2260 nM | EC50 of rosiglitazone for recruitment [14]: 2630 nM; delta ratio with rosiglitazone [14]: 20% |

Now from value to binder, other results behind:

| EC50 of fenofibric acid for recruitment [1] | delta ratio with fenofibric acid [1] | EC50 of edaglitazone for recruitment [2] | delta ratio with edaglitazone [2] | EC50 of RO4899100 for recruitment [3] | EC50 of aleglitazar for recruitment [4] | delta ratio with aleglitazar [4] | EC50 of muraglitazar for recruitment [5] | delta ratio with muraglitazar [5] | EC50 of tesaglitazar for recruitment [6] | delta ratio with tesaglitazar [6] | EC50 of muraglitazar for recruitment [7] | EC50 of aleglitazar for recruitment [8] | EC50 of farglitazar for recruitment [9] | EC50 of tesaglitazar for recruitment [10] | EC50 of edaglitazone for recruitment [11] | EC50 of rosiglitazone for recruitment [12] | EC50 of pioglitazone for recruitment [13] | Binder | other results |
| --- | --- | --- | --- | --- | --- | --- | --- | --- | --- | --- | --- | --- | --- | --- | --- | --- | --- | --- | --- |
| 1.29 µM | 25% | 3670 nM | 32% | 12.7 nM | 2.3 nM | 56% | 88.9 nM | 29% | 377 nM | 53% | – | – | – | – | – | – | – | {Biotin-Ahx}-SPKKKENALLRYLLDKDDTK [TIF2_M3 cofactor peptide (transcriptional intermediary factor 2, motif 3)] | delta ratio with RO4899100 [3]: 100% |
| 2.16 µM | 34% | 945 nM | 26% | 8.6 nM | 2.1 nM | 53% | 96.5 nM | 31% | 326 nM | 70% | 94.3 nM | 43.2 nM | 16.1 nM | 274 nM | 86.5 nM | 951 nM | – | {Biotin-Ahx}-SRLHDSKGQTKLLQLLTTKSD (transcriptional intermediary factor 2 (TIF2), motif 1, residues 630-650; source: synthetic peptide (Jerini or Biosynthan, Berlin)) [TIF2_M1 cofactor peptide (transcriptional intermediary factor 2, motif 1)] | – |
| 5.2 µM | 44% | 294 nM | 21% | 5.9 nM | 1.6 nM | 53% | 34 nM | 33% | 182 nM | 54% | – | – | – | – | – | – | – | {Biotin-Ahx}-STHGTSLKEKHKILHRLLQDS [TIF2_M2 cofactor peptide (transcriptional intermediary factor 2, motif 2)] | delta ratio with RO4899100 [3]: 100% |
